# Biological target: Vip3Aa protoxin (proVip3Aa, without Flag tag) (Bacillus thuringiensis)
# Experiment: MST; labeled proVip3Aa (333 nM) or labeled actVip3Aa (216 nM) kept constant, GST-PHB2 titrated from 0.2 nM to 7 μM; PBS pH 7.5; Monolith NT.115 Pico
substance,measurement,value
GST-PHB2 (prohibitin 2 of Spodoptera frugiperda fused to glutathione-S-transferase) (natural protein),Kd,45.9 nM

# Source: PMC9037526
